Laboratory results reported in PMC2391292.

Target: human CD81 tetraspanin membrane receptor, CD81-GlyGly-rho-1D4 (human) (UniProt P60033)
Assay: ELISA; plates coated with 100 ng rho-1D4 antibody; 100 ng purified CD81 captured by its C-terminal tag; HCV-E2 added at 0.4 to 20 nM for 2 h at room temperature in 25 mM Tris-HCl pH 7.5, 144 mM NaCl, 0.05% DM; detected with goat anti-E2 polyclonal antibody; nonspecific binding (no rho-1D4) subtracted; non-linear regression

Sequence of UniProt P60033 (P60033 whole entry): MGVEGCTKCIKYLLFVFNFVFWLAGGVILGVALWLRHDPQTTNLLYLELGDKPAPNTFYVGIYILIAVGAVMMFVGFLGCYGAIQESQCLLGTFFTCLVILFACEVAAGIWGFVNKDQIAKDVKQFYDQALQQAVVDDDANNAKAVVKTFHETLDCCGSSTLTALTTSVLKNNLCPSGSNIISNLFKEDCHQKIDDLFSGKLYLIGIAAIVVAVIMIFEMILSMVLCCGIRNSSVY

Substance: Recombinant HCV E2 envelope protein (from UniProt P27958 384-746) (ligand)
- Kd: 3.8 nM
